Target: SHIVAD8EO envelope on pseudotyped virus (SHIV (HIV-1 AD8-derived env))
Assay: cell-based or functional assay

## 3BNC117 (antibody)
  IC50, TZM-bl neutralization of SHIVAD8EO: 0.14 µg/mL
